Legend:
ReDAAO [1] = target: T1, ReDAAO (Rasamsonia emersonii, UniProt A0A499UB99); experiment: DNPH assay, […] D-Val as substrate; type: biochemical; details: read-out: % inhibition at 50 mM
T1 construct: gene DAO1; full-length, 368 aa, codon-optimised synthetic ORF in pET15b, His-tagged, E. coli BL21(DE3) pLysS; 42 kDa subunit, 185 kDa tetramer; noncovalent FAD

ReDAAO [2] = target: T1, ReDAAO; experiment: absorption spectrum; TLC of flavin released by heat denaturation; type: binding; details: noncovalent; co-purified from E. coli; pH 8.0
purified protein [3] = substrate: CSCC[C@@H](N)C(=O)O; experiment: purified protein; type: biochemical, Rasamsonia emersonii; details: apparent, 55 °C, 50 mM KPi pH 8.0, 0.02 mM FAD, O2 co-substrate
purified protein [4] = substrate: N=C(N)NCCC[C@@H](N)C(=O)O; experiment: purified protein; type: biochemical, Rasamsonia emersonii; details: apparent, 55 °C, 50 mM KPi pH 8.0, 0.02 mM FAD, O2 co-substrate
purified protein [5] = substrate: CC(C)[C@@H](N)C(=O)O; experiment: purified protein; type: biochemical, Rasamsonia emersonii; details: apparent, 55 °C, 50 mM KPi pH 8.0, 0.02 mM FAD, O2 co-substrate
purified protein [6] = substrate: N[C@H](CCC(=O)O)C(=O)O; experiment: purified protein; type: biochemical, Rasamsonia emersonii; details: apparent, 55 °C, 50 mM KPi pH 8.0, 0.02 mM FAD, O2 co-substrate
purified protein [7] = substrate: C[C@@H](N)C(=O)O; experiment: purified protein; details: apparent, 55 °C, 50 mM KPi pH 8.0, 0.02 mM FAD, O2 co-substrate

## C/C=C/C(=O)O [crotonate]
ReDAAO [1]
  inhibition at 50000 µM: 22.6%

## O=C(O)C[C@@H](O)C(=O)O [D-malate]
ReDAAO [1]
  inhibition at 50000 µM: 17.2%

## O=C(O)c1ccccc1 [benzoate]
ReDAAO [1]
  inhibition at 50000 µM: 13.2%

## Cc1cc2nc3c(=O)[nH]c(=O)nc-3n(C[C@H](O)[C@H](O)[C@H](O)COP(=O)(O)OP(=O)(O)OC[C@H]3O[C@@H](n4cnc5c(N)ncnc54)[C@H](O)[C@@H]3O)c2cc1C [FAD]
ReDAAO [2]
  absorption spectrum; TLC of flavin released by heat denaturation: ReDAAO contains noncovalently bound FAD that functions as a cofactor

B1: ReDAAO (Rasamsonia emersonii) (protein)
chain: MATNNIVVLGAGVSGLTTAWLLSKDPSNKITVAAKHMPGDYDIEYCSPWAGANYLPVGAENSRVGQWERATWPHLRDIAQNHPEAGIHFQDTVVYNRTKDQGSTTGQWFSELVKPNPWYGKVLPNFRELSKDELPPGIDNANRFTSVCINTAVYLPWLVGQCRKNGVVFKRAVFKHVAEAANAHHSGQKADLVVNCTGLSSRKLGGVQDNTLLPARGQIVVVRNDPGLMCSISGTDDGDDEVTYMMTRAAGGGTILGGTYQKHNWDSLPDPNLAVRIMKRCIELCPSLVAPGQGIEGLDIIRHGVGLRPVREDGPRIEKELIDGVWVVHNYGHGGYGYQTSFGCATTAVEVVREALQQQKQRRDKARL
notes: full-length, 368 aa, codon-optimised synthetic ORF in pET15b, His-tagged, E. coli BL21(DE3) pLysS; 42 kDa subunit, 185 kDa tetramer; noncovalent FAD
Purified protein [3]
  Km: 213 ± 30 µM
  kcat: 120 ± 3.1 s⁻¹
  kcat/Km: 562000 M⁻¹ s⁻¹
Purified protein [4]
  Km: 19200 ± 4300 µM
  kcat: 45.6 ± 4.5 s⁻¹
  kcat/Km: 2380 M⁻¹ s⁻¹
Purified protein [5]
  Km: 628 ± 40 µM
  kcat: 225 ± 2.4 s⁻¹
  kcat/Km: 358000 M⁻¹ s⁻¹
Purified protein [6]
  Km: 12100 ± 2900 µM
  kcat: 90.7 ± 6.6 s⁻¹
  kcat/Km: 7490 M⁻¹ s⁻¹
Purified protein [7]
  Km: 2700 ± 300 µM
  kcat: 189 s⁻¹
  kcat/Km: 69900 M⁻¹ s⁻¹

Source: article PMC6697736, “A novel thermostable D-amino acid oxidase of the thermophilic fungus Rasamsonia emersonii strain YA” (Scientific Reports, 2019)
